Molecular target: GST-endophilin I (recombinant) (UniProt O35179)
Assay: sequential GST pull-down, 32P autoradiography
Settings: reference: total dynamin I of the lysate; sites S774,S778

other: phospho/total bound dynamin I, % of AmphI-SH3 control: 91%
Substance: dynamin I (from UniProt P21575) 32P-labelled phospho-dynamin I of same lysate

— publication PMC2082060
